Laboratory results: patent US20050064507

Assays:
[1] = system: T1, LIMK-2 peptide LRRRSLRRSNSISKSPGP (SEQ ID NO:121)
T1 sequence: LRRRSLRRSNSISKSPGP

[2] = system: T2, peptide KLAVGRHSFSRRSGV (SEQ ID NO:21)
T2 sequence: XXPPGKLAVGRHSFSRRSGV

[3] = system: T3, beta adducin peptide KKKFRTPSFLKKSKK (SEQ ID NO:135)
T3 sequence: KKKFRTPSFLKKSKK

[4] = system: T4, PSCDBP peptide LSSMFGTLPRKSRKGSVRKQ (SEQ ID NO:144)
T4 sequence: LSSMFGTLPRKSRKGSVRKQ

[5] = system: T5, peptide RKIPKRPGSVHRTPSRQ (SEQ ID NO:7)
T5 sequence: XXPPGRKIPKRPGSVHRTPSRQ

[6] = system: T6, plectin peptide PLKEKKRERKTSSKSSVRKR (SEQ ID NO:125)
T6 sequence: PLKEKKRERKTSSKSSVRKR

[7] = system: T7, AF15q14 peptide GFLNEPLSSKSQRRKSLKLK (SEQ ID NO:132)
T7 sequence: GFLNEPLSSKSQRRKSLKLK

[8] = system: T8, peptide IDYYKKTSNGRLPVK (SEQ ID NO:74)
T8 sequence: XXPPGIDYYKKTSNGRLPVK

[9] = system: T9, peptide GFAKKIGSGQKTWTF (SEQ ID NO:66)
T9 sequence: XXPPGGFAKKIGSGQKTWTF

[10] = system: T10, peptide KKKKKRFSFKKSFKL (SEQ ID NO:12)
T10 sequence: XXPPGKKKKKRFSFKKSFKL

[11] = system: T11, ANK1 peptide AQIVKRASLKRGKQ (SEQ ID NO:90)
T11 sequence: AQIVKRASLKRGKQ

[12] = system: T12, peptide GAPPRRSSIRNAH (SEQ ID NO:20)
T12 sequence: XXPPGGAPPRRSSIRNAH

[13] = system: T13, peptide LTDPKEDPIYDEPEGLAPVPG (SEQ ID NO:72)
T13 sequence: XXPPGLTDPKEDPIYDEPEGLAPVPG

[14] = system: T14, peptide AKNLKTLQKRDSFIG (SEQ ID NO:53)
T14 sequence: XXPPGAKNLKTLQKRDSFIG

[15] = system: T15, peptide AGWRKKTSFRKPKED (SEQ ID NO:17)
T15 sequence: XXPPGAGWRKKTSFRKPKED

[16] = system: T16, peptide QPEGLRSLKKPDRKKR (SEQ ID NO:42)
T16 sequence: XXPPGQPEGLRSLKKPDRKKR

[17] = system: T17, LIMK2 peptide KATTKKRTLRKNDRK (SEQ ID NO:108)
T17 sequence: KATTKKRTLRKNDRK

[18] = system: T18, peptide ARIIGEKSFRRSVVG (SEQ ID NO:47)
T18 sequence: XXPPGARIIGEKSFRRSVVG

[19] = system: T19, peptide GENVLKKSMKSRVKG (SEQ ID NO:36)
T19 sequence: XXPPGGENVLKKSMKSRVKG

[20] = system: T20, CHRM1 peptide RKIPKRPGSVHRTPSRQ (SEQ ID NO:83)
T20 sequence: RKIPKRPGSVHRTPSRQ

[21] = system: T21, calcium channel, voltage-dependent, L type, alpha peptide RDIRQSPKRGFLRSASLGRR (SEQ ID NO:147)
T21 sequence: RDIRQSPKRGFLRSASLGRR

[22] = system: T22, peptide QRQERIFSKRRGQDF (SEQ ID NO:63)
T22 sequence: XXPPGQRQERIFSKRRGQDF

[23] = system: T23, peptide ALRAPKPTLRYFTTERF (SEQ ID NO:64)
T23 sequence: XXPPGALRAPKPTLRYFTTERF

[24] = system: T24, peptide KKRFSFKKSFKLSGFSFKKN (SEQ ID NO:18)
T24 sequence: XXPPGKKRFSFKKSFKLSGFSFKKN

[25] = system: T25, peptide PRLIRRGSKKRPAR (SEQ ID NO:6)
T25 sequence: XXPPGPRLIRRGSKKRPAR

[26] = system: T26, NEURL peptide ALRRPSLRREADD (SEQ ID NO:105)
T26 sequence: ALRRPSLRREADD

[27] = system: T27, titin peptide PFEVVWYKDKRQLRSSKKYK (SEQ ID NO:160)
T27 sequence: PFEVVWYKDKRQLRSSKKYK

[28] = system: T28, ribosomal protein S6 peptide AKRRRLSSLRASTSK (SEQ ID NO:120)
T28 sequence: AKRRRLSSLRASTSK

[29] = system: T29, GABA A receptor beta 2 peptide ERHVAQKKSRLRRRASQLKI (SEQ ID NO:142)
T29 sequence: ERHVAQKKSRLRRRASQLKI

[30] = system: T30, peptide AVRDMRQTVAVGVIK (SEQ ID NO:62)
T30 sequence: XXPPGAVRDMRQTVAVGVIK

[31] = system: T31, peptide HKHSPEKRGSERKEG (SEQ ID NO:52)
T31 sequence: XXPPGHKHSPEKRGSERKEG

[32] = system: T32, peptide RGEGHKPSIAHRDFK (SEQ ID NO:68)
T32 sequence: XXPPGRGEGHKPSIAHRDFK

[33] = system: T33, DGKI peptide NRKKKRTSFKRKA (SEQ ID NO:79)
T33 sequence: NRKKKRTSFKRKA

[34] = system: T34, peptide AINSRETMFHKERFK (SEQ ID NO:67)
T34 sequence: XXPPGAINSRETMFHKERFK

[35] = system: T35, peptide RQRKRKLSFRRRTDKD (SEQ ID NO:5)
T35 sequence: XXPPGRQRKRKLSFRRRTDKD

[36] = system: T36, peptide RVKLGTLRRPEGP (SEQ ID NO:58)
T36 sequence: XXPPGRVKLGTLRRPEGP

[37] = system: T37, peptide EKIKRSSLKKVDSLKK (SEQ ID NO:24)
T37 sequence: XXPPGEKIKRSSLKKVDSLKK

[38] = system: T38, peptide HVRRRRGTFKRSKLRARD (SEQ ID NO:1)
T38 sequence: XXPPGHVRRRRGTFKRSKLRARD

[39] = system: T39, ERN1 peptide KLAVGRHSFSRRSGV (SEQ ID NO:94)
T39 sequence: KLAVGRHSFSRRSGV

[40] = system: T40, slp4 peptide TYLLPDKSRQGKRKTSIKRD (SEQ ID NO:153)
T40 sequence: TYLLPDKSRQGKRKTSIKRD

[41] = system: T41, peptide KATTKKRTLRKNDRK (SEQ ID NO:32)
T41 sequence: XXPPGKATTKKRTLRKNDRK

PKC-delta
in vitro phosphorylation, 1 uM peptide (% of best substrate) [1]: 80
in vitro phosphorylation, 10 uM peptide (% of best substrate) [1]: 53
in vitro phosphorylation (% of best substrate) [2]: 12
in vitro phosphorylation, 1 uM peptide (% of best substrate) [3]: 40
in vitro phosphorylation, 10 uM peptide (% of best substrate) [3]: 25
in vitro phosphorylation, 1 uM peptide (% of best substrate) [4]: 35
in vitro phosphorylation, 10 uM peptide (% of best substrate) [4]: 28
in vitro phosphorylation (% of best substrate) [5]: 38
in vitro phosphorylation, 1 uM peptide (% of best substrate) [6]: 46
in vitro phosphorylation, 10 uM peptide (% of best substrate) [6]: 36
in vitro phosphorylation, 1 uM peptide (% of best substrate) [7]: 41
in vitro phosphorylation, 10 uM peptide (% of best substrate) [7]: 47
in vitro phosphorylation (% of best substrate) [8]: 0
in vitro phosphorylation (% of best substrate) [9]: 1
in vitro phosphorylation (% of best substrate) [10]: 24
in vitro phosphorylation (% of best substrate) [11]: 32
in vitro phosphorylation (% of best substrate) [12]: 13
in vitro phosphorylation (% of best substrate) [13]: 0
in vitro phosphorylation (% of best substrate) [14]: 2
in vitro phosphorylation (% of best substrate) [15]: 17
in vitro phosphorylation (% of best substrate) [16]: 3
in vitro phosphorylation (% of best substrate) [17]: 6
in vitro phosphorylation (% of best substrate) [18]: 2
in vitro phosphorylation (% of best substrate) [19]: 4
in vitro phosphorylation (% of best substrate) [20]: 38
in vitro phosphorylation, 1 uM peptide (% of best substrate) [21]: 27
in vitro phosphorylation, 10 uM peptide (% of best substrate) [21]: 13
in vitro phosphorylation (% of best substrate) [22]: 1
in vitro phosphorylation (% of best substrate) [23]: 1
in vitro phosphorylation (% of best substrate) [24]: 16
in vitro phosphorylation (% of best substrate) [25]: 40
in vitro phosphorylation (% of best substrate) [26]: 9
in vitro phosphorylation, 1 uM peptide (% of best substrate) [27]: 25
in vitro phosphorylation, 10 uM peptide (% of best substrate) [27]: 31
in vitro phosphorylation, 1 uM peptide (% of best substrate) [28]: 64
in vitro phosphorylation, 10 uM peptide (% of best substrate) [28]: 32
in vitro phosphorylation, 1 uM peptide (% of best substrate) [29]: 30
in vitro phosphorylation, 10 uM peptide (% of best substrate) [29]: 36
in vitro phosphorylation (% of best substrate) [30]: 1
in vitro phosphorylation (% of best substrate) [31]: 2
in vitro phosphorylation (% of best substrate) [32]: 1
in vitro phosphorylation (% of best substrate) [33]: 66
in vitro phosphorylation (% of best substrate) [34]: 1
in vitro phosphorylation (% of best substrate) [35]: 42
in vitro phosphorylation (% of best substrate) [36]: 1
in vitro phosphorylation (% of best substrate) [37]: 10
in vitro phosphorylation (% of best substrate) [38]: 100
in vitro phosphorylation (% of best substrate) [39]: 12
in vitro phosphorylation, 1 uM peptide (% of best substrate) [40]: 32
in vitro phosphorylation, 10 uM peptide (% of best substrate) [40]: 26
in vitro phosphorylation (% of best substrate) [41]: > 5
